Experimental findings from patent US20210139542A1 are described below.

Experiment [1] has as its target HEWL-Hel-108 (hen) (UniProt P00698). The experiment in a line: BLI, mAb on AHC biosensor, 100 nM antigen.
Experiment [2] concerns the target HEWL-Full2 (hen) (UniProt P00698). Briefly: BLI, mAb on AHC biosensor, 100 nM antigen, footnote d bounds the value. (In general: In BLI a coated tip is dipped into the sample, and binding shifts an interference pattern.)
For experiment [3], the target named is HEWL-Full4 (hen) (UniProt P00698). The description is as above.
Experiment [4] has as its target HEWL-Full8 (hen) (UniProt P00698). The experiment in a line: BLI, mAb on AHC biosensor, 100 nM antigen, footnote e bounds the value.
In experiment [5] the target is HEWL-Full2 (hen) (UniProt P00698). The experiment in a line: BLI, mAb on AHC biosensor, 100 nM antigen, footnote c bounds the value.
Experiment [6] deals with HEWL-Full4 (hen) (UniProt P00698). The experiment is described as above.
For experiment [7], the target named is HEWL-Full8 (hen) (UniProt P00698). The description is as above.
Experiment [8] addresses HEWL-Hel-108 (hen) (UniProt P00698). The experiment is described as above.
The target of experiment [9] is HEWL-Full2 (hen) (UniProt P00698). The experiment in a line: BLI, mAb on AHC biosensor, 100 nM antigen.

The Kd is the constant that tells how readily two partners part at equilibrium. Higher therefore signals a looser complex. On to D1.3 (antibody), for which the Kd was 5.7 nM with HEWL-Hel-108 (hen) [1], 2.9 nM with HEWL-Full2 (hen) [2], 7.9 nM with HEWL-Full4 (hen) [3] and 12 nM with HEWL-Full8 (hen) [4].

Take HyHEL-5 (antibody): the equilibrium dissociation constant (Kd) worked out at 0.14 nM with HEWL-Full2 (hen) [5], 0.15 nM in the experiment with HEWL-Full4 (hen) [6], 0.18 nM in the experiment with HEWL-Full8 (hen) [7] and 0.14 nM with HEWL-Hel-108 (hen) [8].

For the substance HyHEL-10 (antibody), the figures for the Kd in the experiment with HEWL-Full2 (hen) [9] and in the experiment with HEWL-Hel-108 (hen) [1] were 150 nM and 0.092 nM, respectively.
